The record followed here is patent US20170306031A1 (NGM BIOPHARMACEUTICALS, published 2017).

First the molecules themselves.
T1: human GFRAL expressed on cells (human, UniProt Q6UXV0 20-394)
T1 sequence: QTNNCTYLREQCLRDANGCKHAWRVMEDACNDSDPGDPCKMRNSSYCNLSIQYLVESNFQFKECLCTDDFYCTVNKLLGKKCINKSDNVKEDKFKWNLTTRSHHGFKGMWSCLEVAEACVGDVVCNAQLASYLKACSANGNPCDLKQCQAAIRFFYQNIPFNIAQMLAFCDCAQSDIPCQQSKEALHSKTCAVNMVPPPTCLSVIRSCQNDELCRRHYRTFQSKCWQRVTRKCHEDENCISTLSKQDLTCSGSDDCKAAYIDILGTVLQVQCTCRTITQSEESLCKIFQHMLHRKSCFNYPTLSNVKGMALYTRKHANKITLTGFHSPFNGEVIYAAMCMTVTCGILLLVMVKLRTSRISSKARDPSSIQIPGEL

T2: mouse GFRAL expressed on cells (mouse, UniProt Q6SJE0 20-393)
T2 sequence: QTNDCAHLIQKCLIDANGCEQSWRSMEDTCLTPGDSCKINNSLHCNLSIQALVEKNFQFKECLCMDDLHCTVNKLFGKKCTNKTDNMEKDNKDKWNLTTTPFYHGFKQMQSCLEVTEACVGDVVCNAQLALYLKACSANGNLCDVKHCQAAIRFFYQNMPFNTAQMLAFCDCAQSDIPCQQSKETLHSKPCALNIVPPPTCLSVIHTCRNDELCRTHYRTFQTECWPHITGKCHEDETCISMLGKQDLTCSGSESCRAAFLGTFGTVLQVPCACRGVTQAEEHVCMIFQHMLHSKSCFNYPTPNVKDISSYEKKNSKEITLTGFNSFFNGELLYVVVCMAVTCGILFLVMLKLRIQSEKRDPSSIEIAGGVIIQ

T3: human GFRAL (analyte in Biacore assays) (human, UniProt Q6UXV0 19-351, limits assumed)
T3 construct: injected in solution over captured antibody; also called hGFRAL
T3 sequence: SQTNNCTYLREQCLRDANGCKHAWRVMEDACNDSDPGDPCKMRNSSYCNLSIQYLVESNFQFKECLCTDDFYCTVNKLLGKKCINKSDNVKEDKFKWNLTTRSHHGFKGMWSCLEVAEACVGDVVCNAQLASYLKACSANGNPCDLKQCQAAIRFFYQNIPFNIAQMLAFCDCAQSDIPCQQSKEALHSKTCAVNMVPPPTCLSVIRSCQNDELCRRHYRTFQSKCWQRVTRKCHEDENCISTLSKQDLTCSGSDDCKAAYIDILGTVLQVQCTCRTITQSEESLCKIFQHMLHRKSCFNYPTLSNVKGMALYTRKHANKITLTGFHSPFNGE

T4: mouse GFRAL (analyte in Biacore assays) (mouse, UniProt Q6SJE0 20-349, limits assumed)
T4 construct: injected in solution over captured antibody
T4 sequence: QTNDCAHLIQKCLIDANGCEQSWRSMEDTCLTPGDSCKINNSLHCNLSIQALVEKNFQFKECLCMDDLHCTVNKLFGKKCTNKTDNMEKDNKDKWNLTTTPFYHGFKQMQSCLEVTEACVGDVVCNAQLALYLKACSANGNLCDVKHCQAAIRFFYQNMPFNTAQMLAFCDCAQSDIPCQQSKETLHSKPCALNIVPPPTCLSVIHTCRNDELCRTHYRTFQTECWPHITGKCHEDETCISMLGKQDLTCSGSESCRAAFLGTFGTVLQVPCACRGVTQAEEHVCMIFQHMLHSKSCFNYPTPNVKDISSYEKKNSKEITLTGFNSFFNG

B1: antibody designated 25M22 (antibody, V domains shown)
VH: QVQLQQSGPDLVKPGASVKISCKASGYTFTSYWVNWMKQRPGKGLEWIGRIYPGDGDTNYNGKFKGKATLTADKSSSTAYMQLSSLTSEDSAVYFCARAYLLRLRRTGYYAMDYWGQGTSVTVSS
VL: DVVLTQTPLSLPVNIGDQASISCKSTKSLLNSDEFTYLDWYLQKPGQSPQLLIFLVSNRFSGVPDRFSGSGSGTDFTLKISRVEAEDLGVYYCFQSNYLPYTFGGGTKLEIK
notes: mouse hybridoma monoclonal
B2: antibody designated 19K19 (antibody, V domains shown)
VH: B1 VH with T28A, V34M, M37V
VL: B1 VL with F54Y
notes: mouse hybridoma monoclonal
B3: antibody designated 2B8 (antibody, V domains shown)
VH: QIQLVQSGPELKKPGETVKISCKASGYTFTTYGMSWVKQAPGKIFKWMGWINTYSGVPTFVDDFRGRFAFSLETSASTAYLQIGNLKNEDTATYFCARRSSYYPYWYFDVWGTGTTVTVSS
VL: DIQMTQSPASLSASVGETVTITCRPSENIYSYLTWFQQEQGKSPQLLVYNAQTLAEGVPSRFSGSGSGTHFSLKINSLQPEDFGTYYCQHYYGYPFTFGSGTKLEIK
notes: mouse hybridoma monoclonal
B4: antibody designated 1C1 (antibody, V domains shown)
VH: QMQLKQSGPGLVQPSQSLSITCTVSGFSLNDYGVHWIRQSPGKGLEWLGVIWSGGRTDYNAAFISRLSISKDNSKSQVFFKMSSLQPQDTAIYYCARWALYFLYGGSMDYWGQGTSVTVSS
VL: DVVLTQTPLSLPVSPGDQASISCRSSQSLVHSSGITYLHWYLQKPGQSPKLLIYKLSNRFSGVPDRFSGSGSGTDFTLKISRVEAEDLGVYFCSQSTHVPPWTFGGGTKLEIK
notes: mouse hybridoma monoclonal
B5: antibody designated 22N5 (antibody, V domains shown)
VH: QNQLVQSGPELKKPGEIVKISCKTSGYTFTDYSMHWVKKTPGKGFKWMGWINTETGEPTYADDFKGRFAFSLETSANTAHLQITNLKNEDTATYFCVKGTLNYWGQGTTLTVSS
VL: DIKMTQSPSSMYASLGERVTITCKASQDIKSYLNWFQQKPGKSPKTLIYRTKRLVDGVPSRFSGSGSGQDYSLTVSSLEYDDVGIYYCLQYVEFPLTFGDGTKLELK
notes: mouse hybridoma monoclonal
B6: antibody designated 2B3 (antibody, V domains shown)
VH: EVKLVESGGGLVQPGGSLKLSCAASGFTFSDYFMFWVRQTPEKRLEWVAYISNDGDSTYYPDTVQGRFTISRDNAKNTLYLQMSRLRSEDTAMYYCTRQGAQATLDYWGQGTTLTVSS
VL: QIVLTQSPAIMSASLGEEITLTCSASSSVFYMHWYQQKSGTSPKLLIYSTSNLASGIPSRFSGSGSGTFYSLTISSVEAEDAADYYCHQWSSTFGGGTKLEIK
B7: antibody designated 8D8 (antibody, V domains shown)
VH: QVQLKESGPGLVAPSQSLSITCTVSGFSLSRYSVHWVRQPPGKGLEWLGMIWGFGSTDYNSALKSRLSITKDNSKSQFFLKMNSLQTDDTAMYYCARIHTTAGSYWGQGTLVTVSA
VL: DIVMTQSQKFMSTSIGDRVSVTCKASQNVGTNVAWYQQKPGQSPKALVYSTSYRYSGVPDRFTGSGSGTDFTLTISNVQSEDLAEYFCHQYNSYPLTFGAGTKLELK
notes: mouse hybridoma monoclonal
B8: antibody designated 12A3 (antibody, V domains shown)
VH: QIQLVQSGPELKKPGETVKISCKASGYPFTIYGMNWVEQAPGKGLKWMGWINTYSGVPTYADDFKGRFAFSLETSASTAYLQINNLKDEDTATYFCASATGNYWGQGTTLTVSS
VL: DIQMTQSPSSLSASLGERVSLTCRASQDIGSSLNWLQQEPDGTIKRLIYATSSLDSGVPKRFSGSRSGSDYSLTISSLESEDFVDYYCLQYASSPYTFGGGTKVEIK
notes: mouse hybridoma monoclonal
B9: humanized anti-GFRAL antibody HC-375g/LC-375j (antibody, IgG1, V domains shown)
VH: QVQLVQSGAEVKKPGSSVKVSCKASGYTFTDYYINWVRQAPGQGLEWIARIYPGNGNTYHNEKFKGRATLTADKSTSTAYMELSSLRSEDTAVYYCAREGLYYDYDRYFDYWGQGTLVTVSS
VL: DIVLTQSPLSLPVTLGQPASISCRASESVDTYGNSFMHWYQQRPGQSPRLLIYLASNLESGVPDRFSGSGSRTDFTLKISRVEAEDVGVYYCHQNNEDPPAFGGGTKVEIK
notes: humanized 5F12

Where a chain is given by its changes, count along the chain named.

The first assay addresses T1, human GFRAL expressed on cells. The experiment in a line: cell-based or functional assay.
Consider B1, for which the “IC50, ELK1-luciferase reporter (hGFRAL/hRET)” value (from here on “IC50 … (hGFRAL/hRET)”) came to 2.89 nM.
In the case of B2, the “IC50 … (hGFRAL/hRET)” value stood at 3.88 nM.
As for B3, the “IC50 … (hGFRAL/hRET)” value is 1.92 nM.
Still for that read-out and setting: to B4 belongs 8.64 nM; to B5, 7.74 nM.
For the molecule B6, the “IC50 … (hGFRAL/hRET)” value came out at 7.12 nM.
B7: the “IC50 … (hGFRAL/hRET)” value was found to be 2.11 nM.
Still for that read-out and setting: the same measure for B8: 4.99 nM.

The target in another assay is T2, mouse GFRAL expressed on cells. Put plainly: cell-based or functional assay.
Take B1: the “IC50, ELK1-luciferase reporter (mGFRAL/mRET)” value (shortened to “IC50 … (mGFRAL/mRET)”) turned out to be 1.11 nM.
Take B2: the “IC50 … (mGFRAL/mRET)” value worked out at 0.895 nM.
The same measure, in the same setting: to B3 belongs 2.45 nM.
Same read-out and setting: to B4 belongs 1.19 nM; to B5, 2.6 nM; to B6, 7.76 nM.
Take B7: the “IC50 … (mGFRAL/mRET)” value is 1.42 nM.
With B8, the “IC50 … (mGFRAL/mRET)” value came to 0.933 nM.

For a further assay, the target named is T1, human GFRAL expressed on cells. Put plainly: cell-based or functional assay. The source holds these as a separate data set.
As to B1, the “IC50, ERK phosphorylation in U2OS hGFRAL/hRET cells” value (“IC50 … in U2OS hGFRAL/hRET cells” for short) is 0.53 nM.
As for B2, the “IC50 … in U2OS hGFRAL/hRET cells” value is 0.61 nM.
B3: the “IC50 … in U2OS hGFRAL/hRET cells” value was found to be 0.22 nM.
For the molecule B4, the “IC50 … in U2OS hGFRAL/hRET cells” value amounted to 0.61 nM.
In the case of B5, the “IC50 … in U2OS hGFRAL/hRET cells” value was found to be 0.9 nM.
As for B6, the “IC50 … in U2OS hGFRAL/hRET cells” value amounted to 1.48 nM.
Still for that read-out and setting: to B7 belongs 0.63 nM; to B8, 0.54 nM.

The next assay has as its target T3, human GFRAL (analyte in Biacore assays). Put plainly: Biacore SPR, antibody captured, GFRAL injected. How it is done:
(§1) In addition, the binding affinity of antibodies to human and mouse GFRAL were measured. For example, antibodies were rank ordered based on their binding affinity to human GFRAL and mouse GFRAL by low resolution KD measurement by Biacore. Briefly, an anti-mouse Fc antibody (Sigma-Aldrich, St. Louis, Mo.) was immobilized on all four flow cells of a CM5 chip using amine coupling reagents (GE Healthcare LifeSciences, Piscataway, N.J.). Purified antibodies were captured (˜100 RUs) on flow cells 2, 3 and 4 using flow cell 1 as a reference. This was followed by injection of human or mouse GFRAL (25 nM in PBS-P buffer) at a flow rate of 70 μL/m in and monitoring the binding kinetics at 25° C.
(§2) Binding affinity measurements were also made in additional Biacore based assays. For example, equilibrium dissociation constant (KD) measurements were carried out with purified antibodies to evaluate their binding to human GFRAL or mouse GFRAL. As mentioned above, anti-mouse Fc antibody (Sigma-Aldrich, St. Louis, Mo.) was immobilized on all four flow cells of a CM5 chip using amine coupling reagents (GE Healthcare LifeSciences, Piscataway, N.J.). Purified antibodies were captured (˜100 RUs) on flow cells 2, 3 and 4 using flow cell 1 as a reference. This was followed by injection of human or mouse GFRAL in PBS-P buffer) at a flow rate of 70 μL/min and the binding kinetics were evaluated at 25° C.
For orientation: Surface plasmon resonance follows binding to a sensor surface in real time, without labels.
B1: the Kd – broadly, the free concentration of one partner at which half of the binding sites on the other are occupied at equilibrium, for simple one-to-one binding – was less than 0.1 nM and the koff (in general, a measure of how fast the partners let go of each other) is approximately 1e-05 s⁻¹.
In the same order, the values of B2 are 0.21 nM and 0.000135 s⁻¹.
B3: binding was characterised by a dissociation constant (Kd) of 0.73 nM.
Molecule B4 came in with an equilibrium dissociation constant (Kd) of less than 0.1 nM.
For the molecule B5, the Kd was found to be 0.21 nM and the koff came to 0.000132 s⁻¹.
In the case of B7, the Kd was found to be 0.46 nM and the koff came out at 0.000124 s⁻¹.
Turning to B8, the Kd was less than 0.1 nM and the koff was approximately 1e-05 s⁻¹.

The next assay addresses T4, mouse GFRAL (analyte in Biacore assays). Put plainly: Biacore SPR, antibody captured, GFRAL injected. How it is done: as §1, §2
As to B1, the Kd was found to be 4.2 nM and the koff came out at 0.0001 s⁻¹.
B2 showed a Kd of 4.7 nM and a dissociation rate constant (koff) of 0.0034 s⁻¹.
B3 registered a Kd of 3.76 nM and a koff of 0.013 s⁻¹.
In the same order, the values of B4 are 3.68 nM and 0.0025 s⁻¹.
The like results for B5 were, in that order, 3.47 nM and 0.000943 s⁻¹.
In the same order, the values of B7 are 8.17 nM and 0.00281 s⁻¹.
The molecule B8 gave a Kd of 5.7 nM and an off-rate (koff) of 0.00216 s⁻¹.

The target in the next assay is T3, human GFRAL (analyte in Biacore assays). The experiment in a line: Biacore SPR, antibody captured, human GFRAL injected. The procedure:
Exemplary humanized anti-GFRAL antibodies identified in Example 6 were assayed for their binding affinity to human GFRAL. Binding affinity measurements were made in Biacore based assays. For example, equilibrium dissociation constant (KD) measurements were carried out with purified antibodies to evaluate their binding to human GFRAL. Using methods described in Example II, anti-mouse Fc antibody (Sigma-Aldrich, St. Louis, Mo.) was immobilized on all four flow cells of a CM5 chip using amine coupling reagents (GE Healthcare LifeSciences, Piscataway, N.J.). Purified humanized anti-GFRAL antibodies were captured (˜100 RUs) on flow cells 2, 3 and 4 using flow cell 1 as a reference. This was followed by injection of human GFRAL in PBS-P buffer) at a flow rate of 70 μL/min and the binding kinetics were evaluated at 25° C.
As to B9, the affinity, expressed as Kd, was 0.057 nM.
